Measurements reported in PMC2212354.

Legend:
[1] = target: CXCR3, stably expressed on HEK293 cells (human) (UniProt P49682)
[2] = target: CXCR3, stably expressed on HEK293 cells (human) (UniProt P49682); assay: radioligand binding

Sequence of UniProt P49682 (P49682 whole entry): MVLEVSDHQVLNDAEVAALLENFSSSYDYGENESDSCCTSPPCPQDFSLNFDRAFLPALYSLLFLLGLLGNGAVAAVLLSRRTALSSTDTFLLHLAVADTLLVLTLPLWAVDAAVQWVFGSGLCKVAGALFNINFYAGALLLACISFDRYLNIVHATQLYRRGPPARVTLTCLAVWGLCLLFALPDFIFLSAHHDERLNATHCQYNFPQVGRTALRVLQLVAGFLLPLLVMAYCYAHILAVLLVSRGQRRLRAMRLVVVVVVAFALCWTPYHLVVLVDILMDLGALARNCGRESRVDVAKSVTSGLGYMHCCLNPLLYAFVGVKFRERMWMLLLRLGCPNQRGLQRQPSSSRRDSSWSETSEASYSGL

| EC50 of intracellular calcium mobilization in 300-19 CXCR3 transfectants [1] | intracellular calcium mobilized in 300-19 CXCR3 transfectants (maximum) [1] | IC50 [2] | KD, high affinity site (Scatchard) [2] | KD, low affinity site (Scatchard) [2] | radiolabeled I-TAC bound (cpm) [2] | Substance |
| --- | --- | --- | --- | --- | --- | --- |
| 10 nM | 1000 nM | 70 nM |  |  |  | IFN-γ–inducible 10-kD protein (IP-10), recombinant, unlabeled (from UniProt P02778 22-98) (ligand) |
| 1 nM |  | 1 nM | 0.3 nM | 36 nM |  | I-TAC (interferon-inducible T cell alpha chemoattractant), chemically synthesized predicted mature polypeptide, unlabeled (from UniProt O14625 22-94) (ligand) |
| 50 nM | 1000 nM | 300 nM |  |  |  | IFN-γ–induced human monokine (HuMig), recombinant, unlabeled (from UniProt Q07325 23-125) (ligand) |
|  |  |  |  |  | 5980 cpm | 125I-iodinated I-TAC (radiolabeled synthetic mature I-TAC) (from UniProt O14625 22-94) (ligand) |
